Experimental findings from patent US20140219913A1 (AbbVie / Abbott, published 2014) are described below.

One assay has as its target TNF-alpha. The assay can be described thus: cell-based or functional assay.
Assay [1] addresses T1, Recombinant human B7-1/CD80 Fc chimera (Cat. 140-B1-100, R&D Systems) (human, UniProt P33681 35-242).
T1 construct: extracellular domain; also called B7-1 antigen; Fc part of the bought chimera not given; not described
T1 sequence (looked up): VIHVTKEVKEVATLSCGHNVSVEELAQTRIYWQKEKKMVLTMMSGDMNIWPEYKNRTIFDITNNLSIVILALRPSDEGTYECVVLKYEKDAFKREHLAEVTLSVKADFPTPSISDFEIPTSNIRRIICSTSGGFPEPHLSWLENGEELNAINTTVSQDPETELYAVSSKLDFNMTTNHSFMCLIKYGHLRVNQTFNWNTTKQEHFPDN
The assay can be described thus: direct bind ELISA, coated recombinant human B7-1/CD80 Fc chimera. On the procedure:
Enzyme Linked Immunosorbent Assays (ELISA) to screen for antibodies that bind a desired target antigen were performed as follows. High bind ELISA plates (Corning Costar #3369, Acton, Mass.) were coated with 100 μL/well of 10 μg/ml of desired target antigen (R&D Systems, Minneapolis, Minn.) or desired target antigen extra-cellular domain/FC fusion protein (R&D Systems, Minneapolis, Minn.) or monoclonal mouse anti-polyHistidine antibody (R&D Systems #MAB050, Minneapolis, Minn.) in phosphate buffered saline (10×PBS, Abbott Bioresearch Center, Media Prep#MPS-073, Worcester, Mass.) overnight at 4° C. Plates were washed four times with PBS containing 0.02% Tween 20. Plates were blocked by the addition of 300 μL/well blocking solution (non-fat dry milk powder, various retail suppliers, diluted to 2% in PBS) for ½ hour at room temperature. Plates were washed four times after blocking with PBS containing 0.02% Tween 20.
One hundred microliters of 10 ng/mL goat anti-human IgG-FC specific HRP conjugated antibody (Southern Biotech #2040-05, Birmingham, Ala.) was added to each well of the desired target antigen plate or anti-polyHistidine antibody/Histidine tagged desired target antigen plate. Alternatively, one hundred microliters of 10 ng/mL goat anti-human IgG-kappa light chain specific HRP conjugated antibody (Southern Biotech #2060-05 Birmingham, Ala.) was added to each well of the desired target antigen/FC fusion plate and incubated for 1 hour at room temperature. Plates were washed 4 times with PBS containing 0.02% Tween 20.
One hundred microliters of enhanced TMB solution (Neogen Corp. #308177, K Blue, Lexington, Ky.) was added to each well and incubated for 10 minutes at room temperature. The reaction was stopped by the addition of 50 μL 1N sulphuric acid. Plates were read spectrophotometrically at a wavelength of 450 nm

Assay [2] concerns the target T2, Recombinant human B7-2/CD86 Fc chimera (Cat. 141-B2-100, R&D Systems) (human, UniProt P42081 26-245).
T2 construct: Fc part of the bought chimera not given; not described
T2 sequence (looked up): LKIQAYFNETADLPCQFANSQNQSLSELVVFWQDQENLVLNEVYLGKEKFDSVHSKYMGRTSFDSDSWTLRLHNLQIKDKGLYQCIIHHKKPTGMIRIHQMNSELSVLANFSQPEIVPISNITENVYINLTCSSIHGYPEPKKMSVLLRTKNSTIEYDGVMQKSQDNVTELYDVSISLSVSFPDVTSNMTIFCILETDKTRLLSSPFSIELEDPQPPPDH
The assay can be described thus: competitive ELISA; coated CD28 Fc, biotinylated B7-2/CD86 Fc, construct titrated. The procedure:
(§1) ELISA plates (Nunc, MaxiSorp, Rochester, N.Y.) were incubated overnight at 4° C. with Recombinant Human CD28 Fc Chimera (Cat. #342-CD-200). Plates were washed three times in washing buffer (PBS containing 0.05% Tween 20), and blocked for 1 hour at 25° C. in blocking buffer (PBS containing 1% BSA). Wells were washed three times, and serial dilutions of each antibody or DVD-Ig in PBS containing 0.1% BSA were added to the wells and incubated at 25° C. for 1 hour. The wells were washed three times, and biotinylated antigen (2 nM) was added to the plates and incubated for 1 hour at 25° C. The wells were washed three times and incubated for 1 hour at 25° C. with streptavidin-HRP (KPL #474-3000, Gaithersburg, Md.). The wells were washed three times, and 100 μl of ULTRA-TMB ELISA (Pierce, Rockford, Ill.) was added per well. Following color development the reaction was stopped with 1N HCL and absorbance at 450 nm was measured. Recombinant human B7-1/CD80 Fc chimera (Cat. 140-B1-100, R&D Systems, Minneapolis, Minn.) was used.
Recombinant human B7-2/CD86 Fc chimera (Cat. 141-B2-100, R&D Systems, Minneapolis, Minn.) was used.
(An ELISA detects its analyte on a solid surface through an enzyme-linked reagent.)

The target in assay [3] is T1, Recombinant human B7-1/CD80 Fc chimera …. As to the kind of experiment: competitive ELISA; coated CD28 Fc, biotinylated B7-1/CD80 Fc (2 nM), construct titrated. On the procedure:
as §1

The target of the next assay is NGF. The assay can be described thus: cell-based or functional assay.

Broadly, the EC50 is the concentration giving half of the maximal effect.

B1: RAB027 (other)
VH: LPAQVAFTPYAPEPGSTCRLREYYDQTAQMCCSKCSPGQHAKVFCTKTSDTVCDSCEDSTYTQLWNWVPECLSCGSRCSSDQVETQACTREQNRICTCRPGWYCALSKQEGCRLCAPLRKCRPGFGVARPGTETSDVVCKPCAPGTFSNTTSSTDICRPHQICNVVAIPGNASMDAVCTSTSPTRSMAPGAVHLPQPVSTRSQHTQPTPEPSTAPSTSFLLPMGPSPPAEGSTGDASTKGPEVQLVQSGAEVKKPGASVKVSCKASGYTFTKYWLGWVRQAPGQGLEWMGDIYPGYDYTHYNEKFKDRVTLTTDTSTSTAYMELRSLRSDDTAVYYCARSDGSSTYWGQGTLVTVSS
VL: DVLMTQTPLSLPVTPGEPASISCTSSQNIVHSNGNTYLEWYLQKPGQSPQLLIYKVSNRFSGVPDRFSGSGSGTDFTLKISRVEAEDVGVYYCFQVSHVPYTFGGGTKVEIKR
As for B1, in the assay with TNF-alpha, the “N-terminal L929 Assay (EC50, pM)” value came to 30 pM.

B2: RAB014 (other)
VH: AMHVAQPAVVLASSRGIASFVCEYASPGKYTEVRVTVLRQADSQVTEVCAATYMMGNELTFLDDSICTGTSSGNQVNLTIQGLRAMDTGLYICKVELMYPPPYYEGIGNGTQIYVIDPEPCPDSDASTKGPSVFPLAPEVQLVQSGAEVKKPGASVKVSCKASGYTFTKYWLGWVRQAPGQGLEWMGDIYPGYDYTHYNEKFKDRVTLTTDTSTSTAYMELRSLRSDDTAVYYCARSDGSSTYWGQGTLVTVSS
VL: DVLMTQTPLSLPVTPGEPASISCTSSQNIVHSNGNTYLEWYLQKPGQSPQLLIYKVSNRFSGVPDRFSGSGSGTDFTLKISRVEAEDVGVYYCFQVSHVPYTFGGGTKVEIKR
notes: rDVD-Ig with LEA29Y on the heavy chain only and a long linker; also called RAB014H; RAB014L
On to B2, for which the EC50 was found to be 1.5 nM in assay [1], 1.1 nM in assay [2] and 1.7 nM in assay [3].

B3: RAB020 (other)
VH: AMHVAQPAVVLASSRGIASFVCEYASPGKYTEVRVTVLRQADSQVTEVCAATYMMGNELTFLDDSICTGTSSGNQVNLTIQGLRAMDTGLYICKVELMYPPPYYEGIGNGTQIYVIDPEPCPDSDQEPKSSDKTHTSPEVQLVQSGAEVKKPGASVKVSCKASGYTFTKYWLGWVRQAPGQGLEWMGDIYPGYDYTHYNEKFKDRVTLTTDTSTSTAYMELRSLRSDDTAVYYCARSDGSSTYWGQGTLVTVSS
VL: DVLMTQTPLSLPVTPGEPASISCTSSQNIVHSNGNTYLEWYLQKPGQSPQLLIYKVSNRFSGVPDRFSGSGSGTDFTLKISRVEAEDVGVYYCFQVSHVPYTFGGGTKVEIKR
notes: rDVD-Ig with LEA29Y on the heavy chain only and a QH linker; also called RAB020H; RAB020L
As to B3, the EC50 amounted to 1.2 nM in assay [1], 1 nM in assay [2] and 1.7 nM in assay [3].

B4: RAB028 (other)
VH: EVQLVQSGAEVKKPGASVKVSCKASGYTFTKYWLGWVRQAPGQGLEWMGDIYPGYDYTHYNEKFKDRVTLTTDTSTSTAYMELRSLRSDDTAVYYCARSDGSSTYWGQGTLVTVSS
VL: LPAQVAFTPYAPEPGSTCRLREYYDQTAQMCCSKCSPGQHAKVFCTKTSDTVCDSCEDSTYTQLWNWVPECLSCGSRCSSDQVETQACTREQNRICTCRPGWYCALSKQEGCRLCAPLRKCRPGFGVARPGTETSDVVCKPCAPGTFSNTTSSTDICRPHQICNVVAIPGNASMDAVCTSTSPTRSMAPGAVHLPQPVSTRSQHTQPTPEPSTAPSTSFLLPMGPSPPAEGSTGDTVAAPDVLMTQTPLSLPVTPGEPASISCTSSQNIVHSNGNTYLEWYLQKPGQSPQLLIYKVSNRFSGVPDRFSGSGSGTDFTLKISRVEAEDVGVYYCFQVSHVPYTFGGGTKVEIKR
In the case of B4, the “N-terminal L929 Assay (EC50, pM)” value in the assay with TNF-alpha was 90 pM.

B5: RAB013 (other)
VH: AMHVAQPAVVLASSRGIASFVCEYASPGKYTEVRVTVLRQADSQVTEVCAATYMMGNELTFLDDSICTGTSSGNQVNLTIQGLRAMDTGLYICKVELMYPPPYYEGIGNGTQIYVIDPEPCPDSDASTKGPSVFPLAPEVQLVQSGAEVKKPGASVKVSCKASGYTFTKYWLGWVRQAPGQGLEWMGDIYPGYDYTHYNEKFKDRVTLTTDTSTSTAYMELRSLRSDDTAVYYCARSDGSSTYWGQGTLVTVSS
VL: AMHVAQPAVVLASSRGIASFVCEYASPGKYTEVRVTVLRQADSQVTEVCAATYMMGNELTFLDDSICTGTSSGNQVNLTIQGLRAMDTGLYICKVELMYPPPYYEGIGNGTQIYVIDPEPCPDSDTVAAPSVFIFPPDVLMTQTPLSLPVTPGEPASISCTSSQNIVHSNGNTYLEWYLQKPGQSPQLLIYKVSNRFSGVPDRFSGSGSGTDFTLKISRVEAEDVGVYYCFQVSHVPYTFGGGTKVEIKR
notes: rDVD-Ig with LEA29Y on both chains and long linkers; also called RAB013H; RAB013L
B5: the values for the EC50 in assay [1], in assay [2] and in assay [3] were 21.2 nM, 0.5 nM and 2 nM, respectively.

B6: RAB031 (other)
VH: QVQLQESGPGLVKPSETLSLTCTVSGFSLIGYDLNWIRQPPGKGLEWIGIIWGDGTTDYNSAVKSRVTISKDTSKNQFSLKLSSVTAADTAVYYCARGGYWYATSYYFDYWGQGTLVTVSS
VL: LPAQVAFTPYAPEPGSTCRLREYYDQTAQMCCSKCSPGQHAKVFCTKTSDTVCDSCEDSTYTQLWNWVPECLSCGSRCSSDQVETQACTREQNRICTCRPGWYCALSKQEGCRLCAPLRKCRPGFGVARPGTETSDVVCKPCAPGTFSNTTSSTDICRPHQICNVVAIPGNASMDAVCTSTSPTRSMAPGAVHLPQPVSTRSQHTQPTPEPSTAPSTSFLLPMGPSPPAEGSTGDTVAAPDIQMTQSPSSLSASVGDRVTITCRASQSISNNLNWYQQKPGKAPKLLIYYTSRFHSGVPSRFSGSGSGTDFTFTISSLQPEDIATYYCQQEHTLPYTFGQGTKLEIKR
Regarding B6, in the assay with TNF-alpha, the “N-terminal L929 Assay (EC50, pM)” value turned out to be 120 pM. In addition, in the assay with NGF, the “C-terminal Bioassay Mean (IC50, nM): Cell Impedance assay” value came to 1.1 nM and the “C-terminal Bioassay Mean (IC50, nM): pERK assay” value is 0.5 nM.

B7: RAB030 (other)
VH: LPAQVAFTPYAPEPGSTCRLREYYDQTAQMCCSKCSPGQHAKVFCTKTSDTVCDSCEDSTYTQLWNWVPECLSCGSRCSSDQVETQACTREQNRICTCRPGWYCALSKQEGCRLCAPLRKCRPGFGVARPGTETSDVVCKPCAPGTFSNTTSSTDICRPHQICNVVAIPGNASMDAVCTSTSPTRSMAPGAVHLPQPVSTRSQHTQPTPEPSTAPSTSFLLPMGPSPPAEGSTGDASTKGPQVQLQESGPGLVKPSETLSLTCTVSGFSLIGYDLNWIRQPPGKGLEWIGIIWGDGTTDYNSAVKSRVTISKDTSKNQFSLKLSSVTAADTAVYYCARGGYWYATSYYFDYWGQGTLVTVSS
VL: DIQMTQSPSSLSASVGDRVTITCRASQSISNNLNWYQQKPGKAPKLLIYYTSRFHSGVPSRFSGSGSGTDFTFTISSLQPEDIATYYCQQEHTLPYTFGQGTKLEIKR
In the case of B7, the “N-terminal L929 Assay (EC50, pM)” value with TNF-alpha turned out to be 50 pM. Further, in the assay with NGF, the “C-terminal Bioassay Mean (IC50, nM): Cell Impedance assay” value came out at 1.6 nM and the “C-terminal Bioassay Mean (IC50, nM): pERK assay” value was 0.6 nM.
